Legend:
[1] = biological target: MTH1-10aa-S-tag fusion protein
[2] = biological target: MTH1-S-tag fusion protein (no linker between MTH1 and the S-tag peptide)
[3] = biological target: BCL6 (B-Cell Lymphoma 6) S-Peptide micro-tag construct
[4] = biological target: MTH1-3aa-S-tag fusion protein

B1: His tagged RNase donor protein (S protein) (protein)
chain: MSSSNYCNQMMKSRNLTKDRCKPVNTFVHESLADVQAVCSQKNVACKNGQTNCYQSYSTMSITDCRETGSSKYPNCAYKTTQANKHIIVACEGNPYVPVHFDASVHHHHHH
B1 was tested, and the “S protein concentration at which the fluorescent signal starts to saturate” value (from here on “S protein concentration”) [1] was “S protein concentration started to saturate signal at about 1-2 ng/ul S protein”, the “fluorescent signal (cleavage of the FRET substrate by complemented RNase S), 50 ug lysate, thermal gradient” value (from here on “fluorescent signal … thermal gradient”) [1] was “there was no significant effect of spacer length on fluorescent signal” and the “S protein concentration” value [2] was “S protein concentration started to saturate signal at about 1-2 ng/ul S protein”. For the same protein, the “fluorescent signal … thermal gradient” value [2] was “there was no significant effect of spacer length on fluorescent signal”, the “fluorescence signal (RLU/min) after heat challenge” value [3] was “the micro-tag construct was denatured in the heat challenge and there was less micro-tag available for enzyme complementation resulting in lower fluorescence signal” and the “S protein concentration” value [4] was “S protein concentration started to saturate signal at about 1-2 ng/ul S protein”. For the same protein, the “fluorescence increase (RLU change per minute)” value [4] was “detected fluorescence increase that was directly proportional to the amount of micro-tagged protein in the reaction”, the “fluorescent signal … thermal gradient” value [4] was “there was no significant effect of spacer length on fluorescent signal” and the “kinetic trace of the S-tag (Micro-tag) fluorescence signal over 20 minutes” value [4] was “A kinetic trace of the development of the S-tag (Micro-tag) fluorescence signal over the course of 20 minutes”.

Reference: patent publication US20220155286
